Assay results reported in patent publication US20220347267A1, “METHODS TO IMPROVE PATIENT RESPONSE TO IMMUNE CHECKPOINT INHIBITORS AND FUNCTIONAL TESTS TO PREDICT RESPONSE” (Biomarker Strategies, LLC, priority 2019, published 2022).

Tests used:
Assay type in all cases: cell-based, human
[1] = system: various NSCLC, HNSCC, breast cancer, melanoma, colorectal cancer, and pancreatic cancer cell lines; experiment: PD-L1 western blot after modulators, summary over all samples; settings: depending on the sample, summary of Table 3
From the text: (§1) Cell lines were acquired from ATCC, Sigma, or DSMZ. Human non-small cell lung carcinoma (NSCLC) cell lines H292 (ATCC no. CRL-1848.), H1299 (ATCC no. CRL-5803), H520 (ATCC no. CRL-5811), CALU6 (ATCC no. HTB-56), H1975 (ATCC no. CRL-5908), H460 (ATCC no. HTB-177), H2126 (ATCC no. CCL-256), H1650 (ATCC no. CRL-5883), and H2087 (ATCC no. CRL-5922) were used for this experiment along with head and neck squamous cell carcinoma (HNSCC) cell lines BHY (DSMZ ACC 404), CAL27 (ATCC no. CRL-2095), KYSE410 (Sigma), and A253 (ATCC no. HTB-41), melanoma cell lines A375 (ATCC no. CRL-1619), COL0853 (Sigma), and MM127 (Sigma) pancreatic cancer cell lines BXPC3 (ATCC no. CRL-1687), colorectal cancer cell lines […], HCT116 (ATCC no. CCL-247EMT), and breast cancer cell lines BT549 (ATCC no. HTB-122), BT20 (ATCC no. HTB-19), and T47D (ATCC no. HTB-133). Cells were maintained in manufacturer-recommended conditions at 37° C. inside humidified 5% CO2 incubators. Sub-cultivation and harvesting for all cell lines were performed using Accutase (GIBCO Life Technologies; cat. no. A1110501) at 37° C. for 10 minutes. Cell viability was measured using trypan blue exclusion staining in conjunction with the Countess II Automated Cell Counter (Thermo Fischer Scientific; cat. no. AMQAX1000). Measurements were made in duplicate and the average number of viable cells was recorded prior to experiments.
(§2) T7039), and IL-10 (50 ng/ml; Sigma Aldrich cat. no. SRP3071) were administered to cell lines for various times including 30 minutes, 3 hour, and 24 hour time intervals prior to cell lysis and protein extraction.
(§3) To determine the effects of the aforementioned molecules on the modulation of PD-L1, we selected various NSCLC, HNSCC, breast cancer, melanoma, colorectal cancer, and pancreatic cancer cell lines as examples. Other diseases or cell lines could be used readily as could more complex samples such as cells isolated from xenografts and clinical samples. Cells were plated, for three different time points (30 minutes, 3 hours, and 24 hours), inside 6-well petri dishes with 2 mL of appropriate medium. Plates were incubated for 24 hours in 5% CO2 incubators at 37° C. After 24 hours, each 6-well plate was washed with PBS (Gibco Life Technologies, cat. no. 10010023) followed by fresh media being added along with each cell line's vehicle control or appropriate modulator for each specific time point, and were placed in CO2 incubators until their modulation time point was reached. Other conditions can be readily used, such as processing on automated systems such as SnapPath. At the end of each time point, while keeping plates on ice, cell lysis was conducted by aspirating culture medium from each plate, washing of each plate three times with 5 ml of cold PBS (Gibco Life Technologies, cat. no. 10010023) and culminated with the addition of cold 1× lysis buffer containing (Cell Signaling, cat. no. 9803 S) protease inhibitor cocktail (Cell Signaling, cat. no. 5871S), phosphatase inhibitor cocktail (Cell Signaling, cat. no. 5870S), and PMSF (Fisher Scientific, cat. no. ICN19538101). Plates were then placed on ice for ten minutes, swirling each plate intermittently. Aliquots of protein lysates were prepared and then stored at −80° C. until protein quantification and Western blot analysis was to be conducted. The protein concentration of each lysate was analyzed by using the Pierce 660 Protein Assay Reagent (Thermo Fisher Scientific, cat. no. 22660) and testing of each sample was conducted in duplicate. Two μg of protein was then loaded per lane into 10% Midi-PROTEAN TGX Precast Gels (Bio Rad, cat. no. 5671034) along with Kaleidoscope Prestained Protein Standard (BioRad, cat. no. 1610375) which ran at 220V for 45 minutes. Proteins were transferred to mini-PVDF membranes (BioRad, cat. no. 1704156) in 3 minutes using the Trans-Blot Turbo Transfer System (BioRad, cat. no. 1704150EDU).

H2087 cells = experiment: PD-L1 western blot after modulators (EM and MTAs); settings: NSCLC H2087, 30 minutes, 3 hours, 24 hours
From the text: as §1
(§4) Enhancer Molecule and Therapies: IFNγ, (10 ng/ml; Sigma Aldrich, cat.no 11040596001), TNFα (10 ng/ml; BD Biosciences cat. no. 554618), Osimertinib (100 ng/ml; Selleckchem cat.no. S7297), Everolimus (100 ng/ml; Selleckchem cat.no S1120), GSK458 (10 ng/ml; Selleckchem cat. no. S2658), TNFb (50 ng/ml; Sigma Aldrich cat. no.), GSK795 (1,000 ng/ml; Selleckchem cat. no. S7492), IL-12 (50 ng/ml; Sigma Aldrich SRP3073), GM-CSF (50 ng/ml; Sigma Aldrich cat. no. G5035), IL-1a (1 ng/ml; Sigma Aldrich cat. no. 12778-), IL-6 (50 ng/ml; Sigma Aldrich), IL-17 (100 ng/ml; Sigma Aldrich cat. no. SRP3080), TGFb (1 ng/ml; Sigma Aldrich cat. no. T7039), and IL-10 (50 ng/ml; Sigma Aldrich cat. no. SRP3071) were administered to cell lines for various times including 30 minutes, 3 hour, and 24 hour time intervals prior to cell lysis and protein extraction.
as §3, with “The protein concentration of each lysate was analyzed by using the Pierce 660 Protein Assay Reagent (Thermo Fisher Scientific, cat. no. 22660) and testing of each sample was conducted in duplicate. Two μg of protein was then loaded per lane into 10% Midi-PROTEAN TGX Precast Gels (Bio Rad, cat. no. 5671034) along with Kaleidoscope Prestained Protein Standard (BioRad, cat. no. 1610375) which ran at 220V for 45 minutes. Proteins were transferred to mini-PVDF membranes (BioRad, cat. no. 1704156) in 3 minutes using the Trans-Blot Turbo Transfer System (BioRad, cat. no. 1704150EDU).” left out

H1975 cells = experiment: PD-L1 western blot after modulators (EM and MTAs); settings: NSCLC H1975, 30 minutes, 3 hours, 24 hours
From the text: as §1, §4
as §3, with “The protein concentration of each lysate was analyzed by using the Pierce 660 Protein Assay Reagent (Thermo Fisher Scientific, cat. no. 22660) and testing of each sample was conducted in duplicate. Two μg of protein was then loaded per lane into 10% Midi-PROTEAN TGX Precast Gels (Bio Rad, cat. no. 5671034) along with Kaleidoscope Prestained Protein Standard (BioRad, cat. no. 1610375) which ran at 220V for 45 minutes. Proteins were transferred to mini-PVDF membranes (BioRad, cat. no. 1704156) in 3 minutes using the Trans-Blot Turbo Transfer System (BioRad, cat. no. 1704150EDU).” left out

H1650 cells = experiment: PD-L1 western blot after modulators (EM and MTAs); settings: NSCLC H1650, 30 minutes, 3 hours, 24 hours
From the text: as §1, §2, §3

BT20 cells = experiment: PD-L1 western blot after modulators (EM and MTAs); settings: Breast BT20, 30 minutes, 3 hours, 24 hours
From the text: as §1, §4
as §3, with “The protein concentration of each lysate was analyzed by using the Pierce 660 Protein Assay Reagent (Thermo Fisher Scientific, cat. no. 22660) and testing of each sample was conducted in duplicate. Two μg of protein was then loaded per lane into 10% Midi-PROTEAN TGX Precast Gels (Bio Rad, cat. no. 5671034) along with Kaleidoscope Prestained Protein Standard (BioRad, cat. no. 1610375) which ran at 220V for 45 minutes. Proteins were transferred to mini-PVDF membranes (BioRad, cat. no. 1704156) in 3 minutes using the Trans-Blot Turbo Transfer System (BioRad, cat. no. 1704150EDU).” left out

Row | Molecule | regulation of PD-L1 across samples [1] | PD-L1 Response (H2087 cells) | PD-L1 Response (H1975 cells) | PD-L1 Response (H1650 cells) | PD-L1 Response (BT20 cells)
1 | GM-CSF: enhancer molecule, 50 ng/ml; Sigma Aldrich | only led to upregulation | Up |  |  | 
2 | TGFb: enhancer molecule, 1 ng/ml; Sigma Aldrich | only led to upregulation |  |  |  | 
3 | IL12: interleukin modulator, 50 ng/ml; Sigma Aldrich (protein, UniProt P29459 23-219; P29460 23-328, looked up) Interleukin-12 subunit alpha: RNLPVATPDPGMFPCLHHSQNLLRAVSNMLQKARQTLEFYPCTSEEIDHEDITKDKTSTVEACLPLELTKNESCLNSRETSFITNGSCLASRKTSFMMALCLSSIYEDLKMYQVEFKTMNAKLLMDPKRQIFLDQNMLAVIDELMQALNFNSETVPQKSSLEEPDFYKTKIKLCILLHAFRIRAVTIDRVMSYLNAS Interleukin-12 subunit beta: IWELKKDVYVVELDWYPDAPGEMVVLTCDTPEEDGITWTLDQSSEVLGSGKTLTIQVKEFGDAGQYTCHKGGEVLSHSLLLLHKKEDGIWSTDILKDQKEPKNKTFLRCEAKNYSGRFTCWWLTTISTDLTFSVKSSRGSSDPQGVTCGAATLSAERVRGDNKEYEYSVECQEDSACPAAEESLPIEVMVDAVHKLKYENYTSSFFIRDIIKPDPPKNLQLKPLKNSRQVEVSWEYPDTWSTPHSYFSLTFCVQVQGKSKREKKDRVFTDKTSATVICRKNASISVRAQDRYYSSSWSEWASVPCS |  |  | Down |  | 
4 | TNFb: enhancer molecule, 50 ng/ml; Sigma Aldrich (protein, UniProt P01374 35-205, looked up) Lymphotoxin-alpha: LPGVGLTPSAAQTARQHPKMHLAHSTLKPAAHLIGDPSKQNSLLWRANTDRAFLQDGFSLSNNSLLVPTSGIYFVYSQVVFSGKAYSPKATSSPLYLAHEVQLFSSQYPFHVPLLSSQKMVYPGLQEPWLHSMYHGAAFQLTQGDQLSTHTDGIPHLVLSPSTVFFGAFAL | both up and down regulation | Down | Up | Up | Up
